Measurements from US20240116985A1 (published 2024).
Starred links: 1 amine or outer side, 2 acyl side, 3 side chain; linkers in the order of their positions; H or OH if unused. Positions of bridges follow the written chain, without caps; N, C: chain ends. Non-standard residues stand in square brackets, D forms with d. Primed or numbered codes have the meaning given here. (CCpCO2H)TriAzDap = (S)-1-(1-(2-amino-2-carboxyethyl)-1H-1,2,3-triazol-4-yl)cyclopropane-1-carboxylic acid, O=C([C@H](Cn1cc(C2(C(=O)[*:3])CC2)nn1)N[*:1])[*:2]; B5(10) = 2-amino-2-(pent-4-en-1-yl)hept-6-enoic acid, bis(4-pentenyl)glycine, stitching residue bearing both staples, C=CCCCC(CCCC=C)(N[*:1])C(=O)[*:2]; PyrS2(3) = (S)-3-amino-1-((pent-4-en-1-yloxy)carbonyl)pyrrolidine-3-carboxylic acid, stapling residue, C=CCCCOC(=O)N1CC[C@@](N[*:1])(C(=O)[*:2])C1; PyrS2″ = (S)-3-amino-1-((pent-4-en-1-yloxy)carbonyl)pyrrolidine-3-carboxylic acid (stapling residue), C=CCCCOC(=O)N1CC[C@@](N[*:1])(C(=O)[*:2])C1; B5(4) = 2,2-bis(4-pentenyl)glycine = 2-amino-2-(pent-4-en-1-yl)hept-6-enoic acid (stitching residue), C=CCCCC(CCCC=C)(N[*:1])C(=O)[*:2]; B5(5) = 2,2-bis(4-pentenyl)glycine, 2-amino-2-(pent-4-en-1-yl)hept-6-enoic acid (stitching residue), C=CCCCC(CCCC=C)(N[*:1])C(=O)[*:2]; PyrS2 = (S)-3-amino-1-((pent-4-en-1-yloxy)carbonyl)pyrrolidine-3-carboxylic acid, C=CCCCOC(=O)N1CC[C@@](N[*:1])(C(=O)[*:2])C1; Phe(3-COOH) = N[C@@H](Cc1cccc(C(=O)O)c1)C(=O)O; Phe(2-Cl) = N[C@@H](Cc1ccccc1Cl)C(=O)O; Bta = N[C@@H](Cc1csc2ccccc12)C(=O)O; αAllylPro = C=CC[C@@]1(C(=O)O)CCCN1; tBuAla = CC(C)(C)C[C@H](N)C(=O)O; 3Thi = N[C@@H](Cc1ccsc1)C(=O)O; Cha = N[C@@H](CC1CCCCC1)C(=O)O; R5 = C=CCCC[C@@](C)(N)C(=O)O; PyrS2(4) = not defined here; Aib = CC(C)(N)C(=O)O

Columns and labels:
[1] = target: T1, beta-catenin in DLD1 TCF/LEF luciferase reporter cells (UniProt P35222 1-781); test: cell-based or functional assay
T1 sequence (looked up): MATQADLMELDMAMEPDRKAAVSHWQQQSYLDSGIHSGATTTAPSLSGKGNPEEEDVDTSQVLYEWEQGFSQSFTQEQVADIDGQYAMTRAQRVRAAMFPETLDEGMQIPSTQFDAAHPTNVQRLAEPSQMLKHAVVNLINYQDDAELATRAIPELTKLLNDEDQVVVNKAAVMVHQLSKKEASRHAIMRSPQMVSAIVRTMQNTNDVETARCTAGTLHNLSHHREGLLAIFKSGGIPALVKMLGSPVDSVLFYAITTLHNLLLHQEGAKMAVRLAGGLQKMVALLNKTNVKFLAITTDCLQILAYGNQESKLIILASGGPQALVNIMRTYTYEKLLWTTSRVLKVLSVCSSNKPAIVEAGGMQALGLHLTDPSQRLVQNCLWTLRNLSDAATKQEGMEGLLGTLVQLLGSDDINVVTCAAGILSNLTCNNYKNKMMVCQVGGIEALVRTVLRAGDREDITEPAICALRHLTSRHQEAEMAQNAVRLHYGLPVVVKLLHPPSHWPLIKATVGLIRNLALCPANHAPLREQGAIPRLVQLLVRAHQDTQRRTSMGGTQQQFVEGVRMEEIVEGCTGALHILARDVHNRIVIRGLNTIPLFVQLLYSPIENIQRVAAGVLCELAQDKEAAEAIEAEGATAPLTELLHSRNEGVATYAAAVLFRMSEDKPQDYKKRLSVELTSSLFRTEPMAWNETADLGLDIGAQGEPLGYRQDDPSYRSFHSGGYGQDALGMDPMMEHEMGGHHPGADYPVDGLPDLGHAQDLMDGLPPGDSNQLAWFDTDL

[2] = target: T2, B-cat-Halo (beta-catenin HaloTag construct transfected into HEK293 cells) (UniProt P35222 1-781); test: cell-based or functional assay
T2 sequence (looked up): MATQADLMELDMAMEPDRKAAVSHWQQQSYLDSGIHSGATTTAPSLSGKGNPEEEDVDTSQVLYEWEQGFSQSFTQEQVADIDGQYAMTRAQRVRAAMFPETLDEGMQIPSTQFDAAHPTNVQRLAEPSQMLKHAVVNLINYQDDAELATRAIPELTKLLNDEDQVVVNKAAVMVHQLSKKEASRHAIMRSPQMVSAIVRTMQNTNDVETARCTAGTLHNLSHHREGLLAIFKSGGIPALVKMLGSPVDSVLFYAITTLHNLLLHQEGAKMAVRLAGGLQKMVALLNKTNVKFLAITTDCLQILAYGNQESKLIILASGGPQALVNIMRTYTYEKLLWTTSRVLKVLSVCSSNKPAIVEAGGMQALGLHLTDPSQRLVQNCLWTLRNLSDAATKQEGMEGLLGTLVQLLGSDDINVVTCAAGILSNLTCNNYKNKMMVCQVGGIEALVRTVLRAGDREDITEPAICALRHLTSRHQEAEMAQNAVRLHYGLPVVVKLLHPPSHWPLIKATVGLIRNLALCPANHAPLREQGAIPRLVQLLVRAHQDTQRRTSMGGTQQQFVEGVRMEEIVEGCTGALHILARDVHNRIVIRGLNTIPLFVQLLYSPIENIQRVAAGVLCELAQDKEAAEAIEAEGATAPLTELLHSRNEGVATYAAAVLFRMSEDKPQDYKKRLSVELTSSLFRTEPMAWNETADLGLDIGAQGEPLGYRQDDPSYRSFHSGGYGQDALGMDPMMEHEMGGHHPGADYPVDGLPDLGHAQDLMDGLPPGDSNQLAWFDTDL

[3] = target: T3, full-length beta-Catenin (Uniprot ID P35222) (Homo sapiens (Human), UniProt P35222 1-781); test: fluorescence polarization competition against 5FAM-TCF4(10-53) on full-length beta-catenin
T3 construct: also called bCat
T3 sequence: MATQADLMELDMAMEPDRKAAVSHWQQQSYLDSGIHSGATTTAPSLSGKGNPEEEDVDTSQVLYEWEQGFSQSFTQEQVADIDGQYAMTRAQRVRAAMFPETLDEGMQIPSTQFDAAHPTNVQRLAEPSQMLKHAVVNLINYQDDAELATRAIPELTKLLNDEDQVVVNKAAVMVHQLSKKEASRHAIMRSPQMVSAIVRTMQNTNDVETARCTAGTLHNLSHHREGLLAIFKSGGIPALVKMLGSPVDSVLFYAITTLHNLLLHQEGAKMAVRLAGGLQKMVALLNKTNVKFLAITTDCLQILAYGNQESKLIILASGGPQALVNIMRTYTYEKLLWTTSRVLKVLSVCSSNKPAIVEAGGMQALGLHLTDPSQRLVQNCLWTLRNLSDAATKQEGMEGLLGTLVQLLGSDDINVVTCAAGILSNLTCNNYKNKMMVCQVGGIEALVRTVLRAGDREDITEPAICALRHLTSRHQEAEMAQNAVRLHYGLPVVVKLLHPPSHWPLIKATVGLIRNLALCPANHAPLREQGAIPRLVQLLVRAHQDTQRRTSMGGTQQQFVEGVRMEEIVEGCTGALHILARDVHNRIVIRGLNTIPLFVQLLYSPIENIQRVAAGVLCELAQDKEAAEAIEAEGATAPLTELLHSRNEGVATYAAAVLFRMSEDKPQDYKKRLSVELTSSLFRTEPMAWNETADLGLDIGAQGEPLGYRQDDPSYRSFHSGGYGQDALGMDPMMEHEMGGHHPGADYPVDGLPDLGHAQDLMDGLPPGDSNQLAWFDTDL
Description: (§1) The plate was incubated protected from light for 60 minutes at 20° C. prior to read. Reads were performed on a CLARIOstar plate reader (BMG Labtech) in duplicate, and data were fitted to a 1:1 binding model with hill slope using an in-house script. All provided concentrations are final concentrations.

[4] = target: T4, beta-catenin in DLD1 TCF/LEF luciferase reporter cells (UniProt P35222 1-781); test: cell-based or functional assay; remark: listed apart in the source
T4 sequence (looked up): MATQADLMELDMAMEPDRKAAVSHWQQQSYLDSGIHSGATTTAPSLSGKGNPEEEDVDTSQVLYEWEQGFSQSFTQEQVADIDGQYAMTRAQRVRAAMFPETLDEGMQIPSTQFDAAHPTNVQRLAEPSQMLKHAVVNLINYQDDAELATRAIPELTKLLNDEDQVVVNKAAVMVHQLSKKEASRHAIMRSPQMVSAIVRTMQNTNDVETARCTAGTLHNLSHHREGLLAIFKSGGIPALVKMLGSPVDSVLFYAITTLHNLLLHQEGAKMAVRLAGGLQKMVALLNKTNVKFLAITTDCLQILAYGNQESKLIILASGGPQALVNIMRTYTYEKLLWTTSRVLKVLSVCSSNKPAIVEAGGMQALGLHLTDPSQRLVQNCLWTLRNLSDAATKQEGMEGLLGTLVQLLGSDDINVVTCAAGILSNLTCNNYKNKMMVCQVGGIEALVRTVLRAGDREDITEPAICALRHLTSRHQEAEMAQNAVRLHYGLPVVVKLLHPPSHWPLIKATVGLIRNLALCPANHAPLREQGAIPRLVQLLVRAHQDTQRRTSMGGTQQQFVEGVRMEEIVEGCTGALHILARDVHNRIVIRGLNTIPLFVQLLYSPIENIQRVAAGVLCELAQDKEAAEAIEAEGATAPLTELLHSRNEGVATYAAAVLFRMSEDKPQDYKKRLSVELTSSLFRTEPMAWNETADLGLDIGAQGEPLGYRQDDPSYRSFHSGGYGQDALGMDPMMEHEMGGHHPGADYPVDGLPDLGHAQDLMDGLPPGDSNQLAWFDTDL

[5] = target: T5, B-cat-Halo (beta-catenin HaloTag fusion expressed in HEK293 cells) (Homo sapiens (Human), UniProt P35222 1-781); test: cell-based or functional assay
T5 sequence: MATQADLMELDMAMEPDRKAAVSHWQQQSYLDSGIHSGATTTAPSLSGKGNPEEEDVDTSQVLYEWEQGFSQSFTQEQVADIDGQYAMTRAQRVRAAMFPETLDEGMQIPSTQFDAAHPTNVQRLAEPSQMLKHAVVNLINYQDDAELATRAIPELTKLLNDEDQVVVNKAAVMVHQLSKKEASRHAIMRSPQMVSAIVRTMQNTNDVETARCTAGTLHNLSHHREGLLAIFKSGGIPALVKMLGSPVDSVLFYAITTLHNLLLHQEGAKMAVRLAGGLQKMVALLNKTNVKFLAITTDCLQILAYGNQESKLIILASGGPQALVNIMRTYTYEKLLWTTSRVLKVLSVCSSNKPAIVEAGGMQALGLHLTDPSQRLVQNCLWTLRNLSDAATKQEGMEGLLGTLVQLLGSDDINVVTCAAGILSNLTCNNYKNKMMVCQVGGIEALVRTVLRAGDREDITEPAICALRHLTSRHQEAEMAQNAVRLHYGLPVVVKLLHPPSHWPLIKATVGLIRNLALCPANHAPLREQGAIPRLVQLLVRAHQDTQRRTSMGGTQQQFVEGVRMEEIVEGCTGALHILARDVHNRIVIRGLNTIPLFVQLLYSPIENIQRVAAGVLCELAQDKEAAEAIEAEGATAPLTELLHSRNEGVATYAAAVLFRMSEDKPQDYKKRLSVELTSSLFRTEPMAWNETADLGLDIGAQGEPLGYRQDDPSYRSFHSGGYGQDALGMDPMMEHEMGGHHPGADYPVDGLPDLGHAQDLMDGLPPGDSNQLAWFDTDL

[6] = target: T6, full-length beta-Catenin (Uniprot ID P35222) (Homo sapiens (Human), UniProt P35222 2-781); test: fluorescence polarization competition, displacement of 5FAM-TCF4 10-53 from full-length beta-catenin
T6 construct: also called bCat; B-Catenin
T6 sequence: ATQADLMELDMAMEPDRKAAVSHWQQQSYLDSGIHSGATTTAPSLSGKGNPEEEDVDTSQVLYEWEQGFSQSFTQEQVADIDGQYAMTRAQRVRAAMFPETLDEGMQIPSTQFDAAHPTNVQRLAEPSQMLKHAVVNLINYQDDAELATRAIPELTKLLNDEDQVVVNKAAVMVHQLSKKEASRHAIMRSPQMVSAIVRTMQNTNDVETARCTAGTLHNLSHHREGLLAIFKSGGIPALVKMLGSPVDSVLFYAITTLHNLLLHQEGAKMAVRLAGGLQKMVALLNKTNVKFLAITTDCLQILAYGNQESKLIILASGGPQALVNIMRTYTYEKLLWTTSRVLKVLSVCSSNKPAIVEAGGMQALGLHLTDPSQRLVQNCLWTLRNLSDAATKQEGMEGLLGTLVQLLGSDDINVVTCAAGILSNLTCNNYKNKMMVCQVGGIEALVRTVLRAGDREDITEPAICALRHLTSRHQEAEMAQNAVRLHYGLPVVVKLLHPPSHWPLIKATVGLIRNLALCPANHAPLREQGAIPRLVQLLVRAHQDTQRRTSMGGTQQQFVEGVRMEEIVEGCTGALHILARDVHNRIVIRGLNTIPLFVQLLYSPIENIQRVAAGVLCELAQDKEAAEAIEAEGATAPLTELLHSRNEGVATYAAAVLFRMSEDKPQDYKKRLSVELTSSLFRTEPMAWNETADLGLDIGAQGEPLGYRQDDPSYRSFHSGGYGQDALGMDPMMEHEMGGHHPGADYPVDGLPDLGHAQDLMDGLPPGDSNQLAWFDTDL
Description: as §1

B1: I-1920 (peptide)
peptide: Ac-[αAllylPro]D[tBuAla][B5(4)]D[Phe(3-COOH)][Aib]AFL[PyrS2(4)][3Thi][Bta]A-NH2
modifications: staple 1-4, 4-11; not fully specified; printed as Ac-PL3-Asp-Npg-B5-Asp-3COOHF-Aib-Ala-Phe-Leu-PyrS2-3Thi-BztA-Ala-NH2; reading uncertain
- DLD1 4% Abs IC50 [1]: 1.2 µM
- NanoBRET Abs IC50 [2]: 3.1 µM

B2: I-1286 (peptide)
peptide: Ac-[αAllylPro]NA[B5(10)]DTAAFL[PyrS2]F[Bta]Q-NH2
modifications: staple 1-4, 4-11; not fully specified; printed as Ac-PL3-Asn-Ala-B5-Asp-Thr-Ala-Ala-Phe-Leu-PyrS2-Phe-BztA-Gln-NH2
notes: Stapled peptide
- IC50 [3]: 10 µM

B3: I-2445 (peptide)
peptide: Ac-[αAllylPro]D[tBuAla][B5(5)]D[(CCpCO2H)TriAzDap]AAFL[PyrS2″][3Thi][Bta]Q-NH2
modifications: staple 1-4, 4-11; not fully specified; printed as Ac-PL3-Asp-Npg-B5-Asp-[CCpCO2H]TriAzDap-Ala-Ala-Phe-Leu-PyrS2-3Thi-BztA-Gln-NH2
- DLD1 4% Abs IC50 [4]: 9.5 µM
- NanoBRET Abs IC50 [5]: 17.1 µM

Binder: Ac-PD[Cha][R5]DDAAFT[PyrS2(3)][Phe(2-Cl)][Bta]S-NH2 (staple 4-11, Stapled peptide, one staple) [I-1184]
- IC50 [6]: 0.176 µM
